Data taken from article PMC5686140, “Structural disorder and induced folding within two cereal, ABA stress and ripening (ASR) proteins” (Scientific Reports, 2017).

Molecular target: the molecule itself
Assay: native MS; native ESI-MS, Synapt G2-Si; proteins buffer-exchanged into 250 mM ammonium acetate, pH 8.0, infused at 15 μM; source temperature 30 °C

B1: alcohol dehydrogenase (enzyme, UniProt P00330 1-348, looked up)
chain: MSIPETQKGVIFYESHGKLEYKDIPVPKPKANELLINVKYSGVCHTDLHAWHGDWPLPVKLPLVGGHEGAGVVVGMGENVKGWKIGDYAGIKWLNGSCMACEYCELGNESNCPHADLSGYTHDGSFQQYATADAVQAAHIPQGTDLAQVAPILCAGITVYKALKSANLMAGHWVAISGAAGGLGSLAVQYAKAMGYRVLGIDGGEGKEELFRSIGGEVFIDFTKEKDIVGAVLKATDGGAHGVINVSVSEAAIEASTRYVRANGTTVLVGMPAGAKCCSDVFNQVVKSISIVGSYVGNRADTREALDFFARGLVKSPIKVVGLSTLPEIYEKMEKGQIVGRYVVDTSK
notes: alcohol dehydrogenase (ADH, a tetrameric protein), control of the native ESI-MS; Species surmised: the tetrameric ADH commonly used as a native MS standard is that of S. cerevisiae; also called ADH
B1 was tested, and the “stoichiometry N” value was 4.
